Assays:
[1] = molecular target: T1, rHA subtype H7 (A/Netherlands/219/03) (Influenza A virus …, UniProt Q6VMK1); experiment: ELISA; conditions: both partners purified
T1 construct: source: bought: Protein Sciences Corp. (baculovirus vectors in insect cells)

[2] = molecular target: T2, rHA subtype H1 (A/New Caledonia/20/99) (Influenza A virus A/New …, UniProt Q6WG00, strain); experiment: ELISA; conditions: both partners purified
T2 construct: source: bought: Protein Sciences Corp. (baculovirus vectors in insect cells)

B1: CR6323 human IgG1 (antibody, V domains shown)
VH: EVQLVESGAEVKKPGSSVKVSCKASGGTFSSYGISWVRQAPGQGLEWMGDIIGMFGSTNYAQNFQGRLTITADESTSTAYMELSSLRSEDTAVYYCARSSGYYPAYLPHWGQGTLVTVSS
VL: not shown
B1: no binding (tested: 5 µg/ml IgG1) [1]; binds [2].
